Measurements: patent publication CN116063469A (UNIV ZHONGSHAN, dated 2023)

Target: T1, 寨卡病毒包膜蛋白的结构域III (ZIKV-EDⅢ抗原) (Zika virus (strain NCBI KU740184.2))
T1 construct: domain: 结构域III (EDIII); also called ZIKV-EDIII; ZIKV EDIII
Test: SPR (OpenSPR, COOH chip), ZIKV-EDIII immobilised, nanobody as analyte, 1:1 model

B1: 纳米抗体Nb-E5 (VHH)
VHH: SDSEVNQEAKPEVKPEVKPETHINLKVSDGSSEIFFKIKKTTPLRRLMEAFAKRQGKEMDSLRFLYDGIRIQADQTPEDLDMEDNDIIEAHREQIGGMAVQLVESGGGLVQPGGSLRLSCKVSGRPFTTYALGWFRQAPGKEREFLTVGAWRGQIFTAESVRGRFTISLDTAKNTFDLQMNSLNIEDTAVYYCAAGSRSSNTPQADPGSFDYWGQGTQVTVSSGAR
notes: no removal of the tag is told, and detection used anti-SMT3 / anti-His antibodies; From a naive alpaca phage library; not shown: 6×His tag at the N-terminus of SUMO (pET-28a-SUMO vector)
- Kd: 8.22 nM
